According to patent publication US20170267766A1 (PIERRE FABRE MEDICAMENT, published 2017):
Residue numbers refer to the chain shown, from its start.

B1: c212A11 (antibody, human IgG1, kappa, V domains shown)
VH: QVQLQQSGPELVKPGASVKMSCKASGYTFTSYYIHWVKQRPGQGLEWIGWIWPGDGSTKYNEKFKGKTTLTADKSSSTAYMFLSSLTSEDSAVYFCASPMITPNYAMDYWGQGASVTVSS
VL: DIQMTQTTSSLSASLGDRVTISCRASQDINKYLNWYQQQPDGTVKLLIYYTSRLHSGVPSRFSGRGSGTDYSLTISNLEQEDIATYFCQQGSTLPYTFGGGTKLEIKR
notes: group G2; also called chimeric 212A11
B2: c219D6 (antibody, human IgG1, kappa, V domains shown)
VH: B1 VH with A16D, T28S, Y33F, A72T, S84N
VL: B1 VL with N30S
notes: group G2; also called chimeric 219D6
B3: c213B10 (antibody, human IgG1, kappa)
heavy: not shown
light: DIQMTQTTSSLSASLGDRVTISCRASQDISKYLNWYQQQPDGTIKLLIYYTSRLHSGVPSRFSGRGSGTDYSLTITNLEQEDIATYFCQQGSALPYTFGGGTKLEIKRTVAAPSVFIFPPSDEQLKSGTASVVCLLNNFYPREAKVQWKVDNALQSGNSQESVTEQDSKDSTYSLSSTLTLSKADYEKHKVYACEVTHQGLSSPVTKSFNRGEC
notes: group G2; also called chimeric 213B10
B4: c214F8 (antibody, human IgG1, kappa)
heavy: not shown
light: B3 light with I21F
notes: group G2; also called chimeric 214F8
B5: hz208F2 H070/L018 (antibody, human IgG1, kappa, V domains shown)
VH: QVQLVQSGAEVKKPGASVKVSCKASGYTFTSYYMHWVRQAPGQGLEWMGWIWPGDGSTKYAQKFQGRVTMTRDTSTSTVYMELSSLRSEDTAVYYCASPMITPNYAMDYWGQGTLVTVSS
VL: DIQMTQSPSSLSASVGDRVTITCRASQDISKYLNWYQQKPGKAPKLLIYYTSRLQSGVPSRFSGRGSGTDYSLTISSLQPEDFATYFCQQGSTLPYTFGGGTKVEIKR
notes: humanized 208F2 variant
B6: hz208F2 H071/L018 (antibody, human IgG1, kappa, V domains shown)
VH: B5 VH with S77N
VL: B5 VL
notes: humanized 208F2 variant
B7: hz208F2 H047/L018 (antibody, human IgG1, kappa, V domains shown)
VH: B5 VH with M34I, T76S, S77N
VL: B5 VL
notes: humanized 208F2 variant
B8: hz208F2 H068/L018 (antibody, human IgG1, kappa, V domains shown)
VH: B5 VH with S77N, Y95F
VL: B5 VL
notes: humanized 208F2 variant
B9: hz208F2 H052/L021 (antibody, human IgG1, kappa, V domains shown)
VH: B5 VH with Y95F
VL: B5 VL with Q55H, Y71F
notes: humanized 208F2 variant
B10: hz208F2 H037/L021 (antibody, human IgG1, kappa, V domains shown)
VH: B5 VH with T74K, T76S, Y95F
VL: B5 VL with Q55H, Y71F
notes: humanized 208F2 variant
B11: hz208F2 H049/L018 (antibody, human IgG1, kappa, V domains shown)
VH: B5 VH with T74K, T76S
VL: B5 VL
notes: humanized 208F2 variant
B12: hz208F2 H052/L018 (antibody, human IgG1, kappa, V domains shown)
VH: B5 VH with Y95F
VL: B5 VL
notes: humanized 208F2 variant
B13: hz208F2 H077/L018 (antibody, human IgG1, kappa, V domains shown)
VH: B5 VH with M34I, Y95F
VL: B5 VL
notes: humanized 208F2 variant
B14: hz208F2 H051/L018 (antibody, human IgG1, kappa, V domains shown)
VH: B5 VH with T76S, S77N, Y95F
VL: B5 VL
notes: humanized 208F2 variant
B15: hz208F2 H076/L018 (antibody, human IgG1, kappa, V domains shown)
VH: B5 VH with M34I
VL: B5 VL
notes: humanized 208F2 variant
B16: hz208F2 H057/L018 (antibody, human IgG1, kappa, V domains shown)
VH: B5 VH with M34I, T74K, S77N
VL: B5 VL
notes: humanized 208F2 variant
B17: hz208F2 H037/L018 (antibody, human IgG1, kappa, V domains shown)
VH: B5 VH with T74K, T76S, Y95F
VL: B5 VL
notes: humanized 208F2 variant
B18: hz208F2 H049/L021 (antibody, human IgG1, kappa, V domains shown)
VH: B5 VH with T74K, T76S
VL: B5 VL with Q55H, Y71F
notes: humanized 208F2 variant
B19: hz208F2 H076/L021 (antibody, human IgG1, kappa, V domains shown)
VH: B5 VH with M34I
VL: B5 VL with Q55H, Y71F
notes: humanized 208F2 variant

molecular target: T1, human IGF-1R (native, on cells) (human, UniProt P08069 31-1367); test: cell-based or functional assay

hIGF-1R phosphorylation, % of that induced by IGF-1 (MCF-7, Ab 10 µg/ml)	Binder
< 20%	B1
< 20%	B2
< 20%	B3
< 20%	B4

molecular target: T1, human IGF-1R (native, on cells); test: FACS titration, MCF-7
Protocol: The binding properties of a series of anti-IGF-1R antibodies were evaluated by FACS analyses on the human MCF-7 breast adenocarcinoma cell line (ATCC#HTB-22) using increasing antibody concentrations. For that purpose, cells (1×10⁶ cells/ml) were incubated with anti-IGF-1R antibodies for 20 min. at 4° C. in FACS buffer (PBS, 0.1% BSA, 0.01% NaN₃). They were then washed 3 times and incubated with the appropriate secondary antibody coupled with Alexa 488 for 20 additional minutes at 4° C. in the dark before being washed 3 times in FACS buffer. The binding of anti-IGF-1R antibodies was immediately performed on viable cells which were identified using propidium iodide (that stains dead cells). The maximum of signal intensity obtained with each antibody was designed as Bₘₐₓ and expressed in mean of fluorescence intensity (MFI). The EC₅₀ of binding expressed in molarity (M) was calculated using a nonlinear regression analysis (GraphPad Prims 4.0).

Bmax	EC50	Binder
991 MFI	0.67 nM	B1
993 MFI	0.47 nM	B2
1100 MFI	0.44 nM	B3
1070 MFI	0.5 nM	B4

molecular target: T1, human IGF-1R (native, on cells); test: FACS titration, hIGF-1R transfected cells
Protocol: Briefly, increasing concentrations of chimeric mAbs were incubated with cells for 20 min at 4° C. in FACS buffer (PBS, 0.1% BSA, 0.01% NaN₃). Cells were then washed 3 times and incubated with the appropriate secondary antibody coupled with Alexa 488 before being incubated for 20 additional minutes at 4° C. in the dark and then washed 3 times in FACS buffer. The binding of anti-IGF-1R antibodies was immediately performed on viable cells which were identified using propidium iodide (that stains dead cells). The binding EC₅₀ expressed in molarity (M) was calculated using a nonlinear regression analysis (GraphPad Prims 4.0).

Bmax	EC50	Binder
2510 MFI	0.44 nM	B1
2520 MFI	0.55 nM	B2
2030 MFI	0.33 nM	B3
2090 MFI	0.27 nM	B4

molecular target: T2, monkey IGF-1R (on COS-7 cells) (African green monkey); test: cell-based or functional assay

% internalisation	ΔMFI	Binder
75%	98 MFI	B1
74%	102 MFI	B2
73%	101 MFI	B3
72%	98 MFI	B4

molecular target: T1, human IGF-1R (native, on cells); test: FACS titration, MCF-7; remark: another data set of the same source
Protocol: (§1) The binding properties of the humanized variants were evaluated by FACS analyses on the human MCF-7 breast adenocarcinoma cell line and the monkey cell line Cos-7 using increasing antibody concentrations. For that purpose, cells (1×10⁶ cells/ml) were incubated with anti-IGF-1R humanized antibodies for 20 min. at 4° C. in FACS buffer (PBS, 0.1% BSA, 0.01% NaN3). They were then washed 3 times and incubated with the appropriate secondary antibody coupled with Alexa 488 for 20 additional minutes at 4° C. in the dark before being washed 3 times in FACS buffer. The binding of anti-IGF-1R antibodies was immediately performed on viable cells which were identified using propidium iodide (that stains dead cells). The EC₅₀ of binding expressed in molarity (M) was calculated using a nonlinear regression analysis (GraphPad Prims 4.0).

EC50	Binder
0.46 nM	B5
0.55 nM	B6
0.77 nM	B7
1.1 nM	B8
0.57 nM	B9
0.48 nM	B10
0.49 nM	B11
0.84 nM	B12
0.77 nM	B13
0.57 nM	B14
0.65 nM	B15
0.58 nM	B16
0.49 nM	B17

molecular target: T2, monkey IGF-1R (on COS-7 cells); test: FACS titration, Cos-7
Protocol: as §1

EC50	Binder
0.73 nM	B5
1.1 nM	B6
0.92 nM	B7
1.2 nM	B8
1.2 nM	B9
0.85 nM	B18
0.82 nM	B10
0.69 nM	B11
0.99 nM	B12
1.1 nM	B19
1.1 nM	B13
0.72 nM	B14
1.1 nM	B15
0.83 nM	B16
0.74 nM	B17

molecular target: T1, human IGF-1R (native, on cells); test: cell-based or functional assay; remark: another data set of the same source

% Internalization (MCF-7, 10 µg/ml, 4 h)	ΔMFI	Binder
80%	322 MFI	B1
80%	353 MFI	B2
85%	369 MFI	B3
87%	403 MFI	B4
